Biological target: ZMYND8 (UniProt Q9ULU4)
Test: co-IP of Flag-ZMYND8 and Myc-EZH2
Conditions: reference: wild type; sites T487

EZH2 (from UniProt Q15910) T487A
binding against the reference: weaker

From article PMC7923384
